Assay results published in the supplement of paper PMC10567573.

B1: PWWP2B (parent)
chain: TIRLRPRQVLCEKCKSTLSPPEAS

Variants of: B1
Experiment: protein stability index of a GFP-peptide fusion (GPS, HEK-293T) (PSI 1-6); higher = more stable
Conditions: c terminus: a fixed tail appended
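Note: lentivirally expressed fusions sorted by FACS into six bins by GFP to DsRed ratio, PSI derived from sequencing read proportions per bin multiplied by bin number.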

Protein stability index of substitutions, site by site:
S16: P 2.73 | V 2.61 | N 3.34 | M 2.94 | I 2.66 | E 3.65 | T 2.92 | K 3.09 | G 3.07 | L 2.59 | R 3.2 | A 3.08 | W 1.96 | D 2.78 | Q 3.35 | Y 2.27 | H 2.76 | C 2.98 | F 2.18
E12: T 2.82 | V 2.39 | S 3.01 | L 1.97 | R 3.08 | C 2.26 | W 2.28 | A 2.59 | Y 2.2 | D 3.28 | F 2.25 | G 2.59 | Q 2.33 | P 2.99 | M 2.26 | N 2.81 | I 1.93 | K 2.42 | H 3.03
S19: T 2.37 | K 2.56 | G 2.29 | P 3.16 | C 2.99 | N 3.25 | M 2.74 | L 2.72 | E 3.32 | F 2.83 | D 3.68 | Q 3.01 | H 2.68 | I 3.35 | R 2.59 | A 3.02
T17: W 1.89 | R 2.77 | D 3.19 | E 3.97 | C 2.5 | A 3.33 | V 2.48 | I 2.88 | F 2.56 | H 2.76 | K 2.62 | Y 2.18 | L 3 | M 2.77 | P 3.44 | S 2.96 | N 2.76 | G 2.82 | Q 2.78
K13: Y 2.24 | T 2.39 | Q 2.83 | H 2.53 | I 2.73 | E 3.32 | G 2.6 | D 3.39 | L 1.81 | V 2.71 | N 2.78 | R 3.37 | C 2.74 | F 2.46 | M 2.84 | W 2.49 | S 3 | A 2.72 | P 3.22
K15: C 2.41 | I 2.51 | M 2.79 | Y 2.73 | A 2.71 | R 2.59 | G 2.83 | L 2.76 | Q 2.72 | N 3.26 | H 2.57 | D 3.58 | E 3.72 | T 3.07 | W 2.76 | V 2.71 | F 3.01 | P 4.03 | S 2.74
C14: L 3.13 | I 3.64 | W 2.58 | H 3.52 | R 3.32 | G 4.08 | M 3.44 | K 4.05 | D 4.04 | F 3.19 | Y 3.45 | S 3.84 | E 4.23 | V 3.52 | T 4.22 | P 4.29 | A 3.85 | Q 4.05 | N 4.05
C11: V 3.25 | T 3.6 | E 4.15 | Y 3.25 | F 2.53 | M 2.86 | L 2.84 | H 3.13 | N 3.62 | G 3.85 | K 3.58 | Q 3.57 | R 3.4 | W 2.23 | S 3.73 | P 3.46 | D 3.93 | I 3.33
L18: R 2.49 | P 3.94 | D 3.78 | T 3.08 | C 3.15 | G 3.7 | Y 2.83 | W 1.96 | I 3.03 | H 3.85 | M 3.94 | N 3.63 | S 2.87 | Q 3.05 | K 3.11 | E 3.92 | V 3.18 | F 2.89 | A 2.86
